Source: US20220363770A1 (Amgen, published 2022)
Changes are numbered by the printed parent chain. Blank lines part the entries; values can stand above or below the binder they belong to.

What was measured:
[1] = molecular target: human CGRP receptor (human, UniProt Q16602 23-461; O60894 27-148); test: cell-based or functional assay
[2] = molecular target: T1, human PAC1 receptor (human, UniProt P41586 24-468); test: cell-based or functional assay
T1 sequence: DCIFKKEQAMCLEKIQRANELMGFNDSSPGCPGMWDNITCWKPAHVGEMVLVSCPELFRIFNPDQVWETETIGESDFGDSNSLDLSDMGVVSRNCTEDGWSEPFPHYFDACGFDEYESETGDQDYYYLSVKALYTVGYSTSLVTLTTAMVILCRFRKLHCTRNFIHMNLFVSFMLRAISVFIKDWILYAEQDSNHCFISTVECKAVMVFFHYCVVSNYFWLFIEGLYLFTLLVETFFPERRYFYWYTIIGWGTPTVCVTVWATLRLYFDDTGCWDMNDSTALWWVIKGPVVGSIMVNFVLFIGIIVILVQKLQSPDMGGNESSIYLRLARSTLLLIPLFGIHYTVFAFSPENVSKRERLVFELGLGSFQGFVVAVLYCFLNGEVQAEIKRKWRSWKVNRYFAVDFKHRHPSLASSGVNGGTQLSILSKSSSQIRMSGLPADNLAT

Chain of human CGRP receptor (Q16602 23-461 limits assumed, chain 1 of 2): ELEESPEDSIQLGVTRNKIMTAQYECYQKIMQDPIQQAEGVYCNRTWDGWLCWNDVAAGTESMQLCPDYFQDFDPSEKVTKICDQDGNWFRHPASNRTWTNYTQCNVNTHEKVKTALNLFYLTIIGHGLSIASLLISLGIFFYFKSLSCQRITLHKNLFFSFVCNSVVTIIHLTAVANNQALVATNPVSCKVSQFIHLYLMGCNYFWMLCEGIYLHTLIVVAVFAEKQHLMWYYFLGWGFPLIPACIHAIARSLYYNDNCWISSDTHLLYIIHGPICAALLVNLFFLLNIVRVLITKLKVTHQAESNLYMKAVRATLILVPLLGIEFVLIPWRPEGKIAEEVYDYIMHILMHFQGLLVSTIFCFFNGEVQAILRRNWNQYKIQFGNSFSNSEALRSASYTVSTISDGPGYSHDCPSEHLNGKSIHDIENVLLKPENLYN
Chain of human CGRP receptor (O60894 27-148 limits assumed, chain 2 of 2): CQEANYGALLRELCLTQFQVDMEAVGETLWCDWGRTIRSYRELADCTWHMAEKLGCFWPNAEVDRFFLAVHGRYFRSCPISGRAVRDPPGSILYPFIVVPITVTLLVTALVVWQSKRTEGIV

Fold-improvement over 4E4 Ab [1]: 0.4 fold | IC50 [1]: 1.54 nM | Fold-improvement over 29G4v22 Ab [2]: 4.8 fold | IC50 [2]: 1.34 nM
B1: iPS:454861 (bispecific antibody, human IgG1, kappa, lambda, N297G)
light 1: QSVLTQPPSVSAAPGQKVTISCSGSSSNIGNNYVSWYQQLPGTAPKLLIYDNNKRPSGIPDRFSGSKSGTSTTLGITGLQTGDEADYYCGTWDSRLSAVVFGGGTKLTVLGQPKAAPSVTLFPPSSEELQANKATLVCLISDFYPGAVTVAWKADSSPVKAGVETTTPSKQSNNKYAAKSYLSLTPEQWKSHRSYSCQVTHEGSTVEKTVAPTECS
heavy 1: QVQLVESGGGVVQPGRSLRLSCAASGFTFSSFGMHWVRQAPGKGLEWVAVISFDGSIKYSVDSVKGRFTISRDNSKNTLFLQMNSLRAEDTAVYYCARDRLNYYRSFGYYGYHYYGMAVWGQGTTVTVSSASTKGPSVFPLAPSSKSTSGGTAALGCLVKDYFPEPVTVSWNSGALTSGVHTFPAVLQSSGLYSLESVVTVPSSSLGTQTYICNVNHKPSNTKVDKKVEPKSCDKTHTCPPCPAPELLGGPSVFLFPPKPKDTLMISRTPEVTCVVVDVSHEDPEVKFNWYVDGVEVHNAKTKPCEEQYGSTYRCVSVLTVLHQDWLNGKEYKCKVSNKALPAPIEKTISKAKGQPREPQVYTLPPSRKKMTKNQVSLTCLVKGFYPSDIAVEWESNGQPENNYKTTPPVLKSDGSFFLYSKLTVDKSRWQQGNVFSCSVMHEALHNHYTQKSLSLSPGK
light 2: EIVLTQSPATLSLSPGERATLSCRASRSVGLALHWYQQKPGQAPRLLIKYASQSLSGIPARFSGSGSGTDFTLTISSLEPEDFAVYYCHQSSFLPFTFGPGTKVDIKRTVAAPSVFIFPPSDEQLKSGTASVVCLLNNFYPREAKVQWKVDNALQSGNSQESVTEQDSKDSTYSLESTLTLSKADYEKHKVYACEVTHQGLSSPVTKSFNRGEC
heavy 2: not shown

Fold-improvement over 4E4 Ab [1]: 0.3 fold | IC50 [1]: 1.7 nM | Fold-improvement over 29G4v22 Ab [2]: 1.9 fold | IC50 [2]: 3 nM
B2: iPS:454875 (bispecific antibody, human IgG1, kappa, lambda, N297G)
light 1: B1 light 1
heavy 1: B1 heavy 1
light 2: EIVLTQSPATLSLSPGERATLSCRASRAVSNLHWYQQKPGQAPRLLIKYASQSLSGIPARFSGSGSGTDFTLTISSLEPEDFAVYYCHQSSYLPFTFGPGTKVDIKRTVAAPSVFIFPPSDEQLKSGTASVVCLLNNFYPREAKVQWKVDNALQSGNSQESVTEQDSKDSTYSLESTLTLSKADYEKHKVYACEVTHQGLSSPVTKSFNRGEC
heavy 2: not shown

Fold-improvement over 4E4 Ab [1]: 0.4 fold | IC50 [1]: 1.65 nM | Fold-improvement over 29G4v22 Ab [2]: 5.8 fold | IC50 [2]: 1.1 nM
B3: iPS:454869 (bispecific antibody, human IgG1, kappa, lambda, N297G)
light 1: B1 light 1
heavy 1: B1 heavy 1
light 2: B1 light 2 with R27K, L31Q, A32S, F93R
heavy 2: not shown

Fold-improvement over 4E4 Ab [1]: 0.6 fold | IC50 [1]: 0.9 nM | Fold-improvement over 29G4v22 Ab [2]: 9.5 fold | IC50 [2]: 0.68 nM
B4: iPS:454891 (bispecific antibody, human IgG1, kappa, lambda, N297G)
light 1: B1 light 1
heavy 1: B1 heavy 1
light 2: B1 light 2 with R27Q, L31R, A32S, F93R
heavy 2: not shown

Fold-improvement over 4E4 Ab [1]: 0.3 fold | IC50 [1]: 1.86 nM | Fold-improvement over 29G4v22 Ab [2]: 9.3 fold | IC50 [2]: 0.69 nM
B5: iPS:454887 (bispecific antibody, human IgG1, kappa, lambda, N297G)
light 1: B1 light 1
heavy 1: B1 heavy 1
light 2: B1 light 2 with R27K, L31R, A32S, F93R
heavy 2: not shown

Fold-improvement over 4E4 Ab [1]: 0.6 fold | IC50 [1]: 1.04 nM | Fold-improvement over 29G4v22 Ab [2]: 5.2 fold | IC50 [2]: 1.41 nM
B6: iPS:454899 (bispecific antibody, human IgG1, kappa, lambda, N297G)
light 1: B1 light 1
heavy 1: B1 heavy 1
light 2: B1 light 2 with R27K, L31R, A32S, F93R
heavy 2: not shown

Fold-improvement over 4E4 Ab [1]: 0.5 fold | IC50 [1]: 1.1 nM | Fold-improvement over 29G4v22 Ab [2]: 4.9 fold | IC50 [2]: 1.31 nM
B7: iPS:454889 (bispecific antibody, human IgG1, kappa, lambda, N297G)
light 1: B1 light 1
heavy 1: B1 heavy 1
light 2: B1 light 2 with R27K, L31R, A32S, F93R
heavy 2: not shown

Fold-improvement over 4E4 Ab [1]: 0.3 fold | IC50 [1]: 1.49 nM | Fold-improvement over 29G4v22 Ab [2]: 7.2 fold | IC50 [2]: 0.8 nM
B8: iPS:454877 (bispecific antibody, human IgG1, kappa, lambda, N297G)
light 1: B1 light 1
heavy 1: B1 heavy 1
light 2: B1 light 2 with R27K, L31R, A32S, F93R
heavy 2: not shown

Fold-improvement over 4E4 Ab [1]: 0.4 fold | IC50 [1]: 1.59 nM | Fold-improvement over 29G4v22 Ab [2]: 3.9 fold | IC50 [2]: 1.63 nM
B9: iPS:454865 (bispecific antibody, human IgG1, kappa, lambda, N297G)
light 1: B1 light 1
heavy 1: B1 heavy 1
light 2: B1 light 2 with R27K, L31Q, A32S, F93R
heavy 2: not shown

Fold-improvement over 4E4 Ab [1]: 0.2 fold | IC50 [1]: 2.3 nM | Fold-improvement over 29G4v22 Ab [2]: 3.3 fold | IC50 [2]: 1.74 nM
B10: iPS:454871 (bispecific antibody, human IgG1, kappa, lambda, N297G)
light 1: B1 light 1
heavy 1: B1 heavy 1
light 2: B1 light 2 with R27K, L31Q, A32S, F93R
heavy 2: not shown

Fold-improvement over 4E4 Ab [1]: 0.3 fold | IC50 [1]: 1.37 nM | Fold-improvement over 29G4v22 Ab [2]: 6.7 fold | IC50 [2]: 0.86 nM
B11: iPS:454879 (bispecific antibody, human IgG1, kappa, lambda, N297G)
light 1: B1 light 1
heavy 1: B1 heavy 1
light 2: B1 light 2 with R27K, L31R, A32S, F93R
heavy 2: not shown

Fold-improvement over 4E4 Ab [1]: 0.5 fold | IC50 [1]: 1.03 nM | Fold-improvement over 29G4v22 Ab [2]: 9 fold | IC50 [2]: 0.64 nM
B12: iPS:454883 (bispecific antibody, human IgG1, kappa, lambda, N297G)
light 1: B1 light 1
heavy 1: B1 heavy 1
light 2: B1 light 2 with R27K, L31R, A32S, F93R
heavy 2: not shown

Fold-improvement over 4E4 Ab [1]: 0.4 fold | IC50 [1]: 1.55 nM | Fold-improvement over 29G4v22 Ab [2]: 6.5 fold | IC50 [2]: 0.98 nM
B13: iPS:454867 (bispecific antibody, human IgG1, kappa, lambda, N297G)
light 1: B1 light 1
heavy 1: B1 heavy 1
light 2: B1 light 2 with R27K, L31W, A32S, F93R
heavy 2: not shown

Fold-improvement over 4E4 Ab [1]: 0.2 fold | IC50 [1]: 2.13 nM | Fold-improvement over 29G4v22 Ab [2]: 4.4 fold | IC50 [2]: 1.32 nM
B14: iPS:454873 (bispecific antibody, human IgG1, kappa, lambda, N297G)
light 1: B1 light 1
heavy 1: B1 heavy 1
light 2: B1 light 2 with R27K, S28A, L31F, A32S
heavy 2: not shown

Fold-improvement over 4E4 Ab [1]: 0.5 fold | IC50 [1]: 1.14 nM | Fold-improvement over 29G4v22 Ab [2]: 6.2 fold | IC50 [2]: 1.04 nM
B15: iPS:454897 (bispecific antibody, human IgG1, kappa, lambda, N297G)
light 1: B1 light 1
heavy 1: B1 heavy 1
light 2: B1 light 2 with R27K, L31R, A32S, F93R
heavy 2: not shown

Fold-improvement over 4E4 Ab [1]: 0.4 fold | IC50 [1]: 1.35 nM | Fold-improvement over 29G4v22 Ab [2]: 7.4 fold | IC50 [2]: 0.87 nM
B16: iPS:454893 (bispecific antibody, human IgG1, kappa, lambda, N297G)
light 1: B1 light 1
heavy 1: B1 heavy 1
light 2: B1 light 2 with R27Q, L31R, A32S, F93R
heavy 2: not shown

Fold-improvement over 4E4 Ab [1]: 0.4 fold | IC50 [1]: 1.5 nM | Fold-improvement over 29G4v22 Ab [2]: 4.5 fold | IC50 [2]: 1.4 nM
B17: iPS:454863 (bispecific antibody, human IgG1, kappa, lambda, N297G)
light 1: B1 light 1
heavy 1: B1 heavy 1
light 2: B1 light 2 with R27K, L31Q, A32S, F93R
heavy 2: not shown

Fold-improvement over 4E4 Ab [1]: 0.6 fold | IC50 [1]: 1.01 nM | Fold-improvement over 29G4v22 Ab [2]: 10.9 fold | IC50 [2]: 0.67 nM
B18: iPS:454901 (bispecific antibody, human IgG1, kappa, lambda, N297G)
light 1: B1 light 1
heavy 1: B1 heavy 1
light 2: B1 light 2 with R27K, S28A, L31W, A32S, F93R
heavy 2: not shown

Fold-improvement over 4E4 Ab [1]: 0.5 fold | IC50 [1]: 1.16 nM | Fold-improvement over 29G4v22 Ab [2]: 10.2 fold | IC50 [2]: 0.72 nM
B19: iPS:454903 (bispecific antibody, human IgG1, kappa, lambda, N297G)
light 1: B1 light 1
heavy 1: B1 heavy 1
light 2: B1 light 2 with R27K, L31W, A32S, F93R
heavy 2: not shown

Fold-improvement over 4E4 Ab [1]: 0.5 fold | IC50 [1]: 1.16 nM | Fold-improvement over 29G4v22 Ab [2]: 10.5 fold | IC50 [2]: 0.61 nM
B20: iPS:454885 (bispecific antibody, human IgG1, kappa, lambda, N297G)
light 1: B1 light 1
heavy 1: B1 heavy 1
light 2: B1 light 2 with R27K, L31R, A32S, F93R
heavy 2: not shown

Fold-improvement over 4E4 Ab [1]: 0.5 fold | IC50 [1]: 0.93 nM | Fold-improvement over 29G4v22 Ab [2]: 10.9 fold | IC50 [2]: 0.53 nM
B21: iPS:454881 (bispecific antibody, human IgG1, kappa, lambda, N297G)
light 1: B1 light 1
heavy 1: B1 heavy 1
light 2: B1 light 2 with R27K, L31R, A32S, F93R
heavy 2: not shown

Fold-improvement over 4E4 Ab [1]: 0.4 fold | IC50 [1]: 1.41 nM | Fold-improvement over 29G4v22 Ab [2]: 9.4 fold | IC50 [2]: 0.69 nM
B22: iPS:454895 (bispecific antibody, human IgG1, kappa, lambda, N297G)
light 1: B1 light 1
heavy 1: B1 heavy 1
light 2: B1 light 2 with R27Q, L31R, A32S, F93R
heavy 2: not shown
